According to the RNAGym collection of RNA variant scans (doi:10.7554/elife.80360):

B1: HDV Ribozyme (parent)
chain: GGCCGGCAUGGUCCCAGCCUCCUCGCUGGCGCCGGCUGGGCAACAUUCCGAGGGGACCGUCCCCUCGGUAAUGGCGAAUGGGACCCA

Variants of: B1
Assay: self-cleavage, relative activity (ratio to wild type); higher = more cleavage; co-transcriptional

Variant	self-cleavage
GGCCGGAAUUGUCCCAGCCUCCUCGCUGGCGCCGGCUGGGCAACAUUCCGAGGGGACCGUCCCCUCGGUAAUGGCGAAUGGGACCCA [C7A G10U]	0.0723
GGCCGGAAUCGUCCCAGCCUCCUCGCUGGCGCCGGCUGGGCAACAUUCCGAGGGGACCGUCCCCUCGGUAAUGGCGAAUGGGACCCA [C7A G10C]	0.201
GGCCGGAAUGGUCCCAGCCUCCUCGCUGGCGCCGGCUGGGCAACAUUCCGAGGGGACCGUCCCCUCGGUAAUGGCGAAUGGGAGCCA [C7A C84G]	0.128
GGCCGGAAUGGUCCCAGCCUCCUCGCUGGCGCCGGGUGGGCAACAUUCCGAGGGGACCGUCCCCUCGGUAAUGGCGAAUGGGACCCA [C7A C36G]	0.0875
GGCCGGAAUGGUCCCAGCCUCCUCGCUCGCGCCGGCUGGGCAACAUUCCGAGGGGACCGUCCCCUCGGUAAUGGCGAAUGGGACCCA [C7A G28C]	0.0615
GGCCGGAAUGGUCCCAGCCUCCUCGCUGGCGCCGGCUGGGCAACAUUCCGAGGGGACCGUCCCCUAGGUAAUGGCGAAUGGGACCCA [C7A C66A]	0.539
GGCCGGAAUGGUCCCAGCCUCCUCGCUGGCGCCGGCUGGGUAACAUUCCGAGGGGACCGUCCCCUCGGUAAUGGCGAAUGGGACCCA [C7A C41U]	0.489
GGCCGGAAUGGUCCCAGCCUCCUCGCUGGCGCCGGCUGGGCAACAUUCCGAGGGGACCGUCUCCUCGGUAAUGGCGAAUGGGACCCA [C7A C62U]	0.721
GGCCGGAAUGGUCCCAGCCUCCUGGCUGGCGCCGGCUGGGCAACAUUCCGAGGGGACCGUCCCCUCGGUAAUGGCGAAUGGGACCCA [C7A C24G]	0.0415
GGCCGGAAUGGUCCCAGCCUCCUCGCUGGCGCCGGCUGGGCAAUAUUCCGAGGGGACCGUCCCCUCGGUAAUGGCGAAUGGGACCCA [C7A C44U]	0.0723
GGCCGGAAUGGUCCCAGCCUCCUCGCUGGCGCCGGCUGGGCAAGAUUCCGAGGGGACCGUCCCCUCGGUAAUGGCGAAUGGGACCCA [C7A C44G]	0.0594
GGCCGGAAUGGUCCCAGCCUCCUCGCUGGCGCGGGCUGGGCAACAUUCCGAGGGGACCGUCCCCUCGGUAAUGGCGAAUGGGACCCA [C7A C33G]	0.0519
GGCCGGAAUGGUCCCAGCCUCCUCGCUGGCGCAGGCUGGGCAACAUUCCGAGGGGACCGUCCCCUCGGUAAUGGCGAAUGGGACCCA [C7A C33A]	0.0639
GGCCGGAAUGGUCCCAGCCUCCUCGCUGGCGCCGGCUCGGCAACAUUCCGAGGGGACCGUCCCCUCGGUAAUGGCGAAUGGGACCCA [C7A G38C]	0.106
GGCCGGAAUGGUCCCAGCCUCCUCGCUGGCGCCGGCUGGGCAACAUUCCGAGGGGACAGUCCCCUCGGUAAUGGCGAAUGGGACCCA [C7A C58A]	0.772
GGCCGGAAUGAUCCCAGCCUCCUCGCUGGCGCCGGCUGGGCAACAUUCCGAGGGGACCGUCCCCUCGGUAAUGGCGAAUGGGACCCA [C7A G11A]	0.0674

Variant	self-cleavage
GGCCGGAAUGCUCCCAGCCUCCUCGCUGGCGCCGGCUGGGCAACAUUCCGAGGGGACCGUCCCCUCGGUAAUGGCGAAUGGGACCCA [C7A G11C]	0
GGCCGGAAUGGUCCCAGCCUCCUCGCUGGCGCCGGCUGGGCAACAUUGCGAGGGGACCGUCCCCUCGGUAAUGGCGAAUGGGACCCA [C7A C48G]	0.462
GGCCGGAAUGGUCCCAGCCUCCUCGUUGGCGCCGGCUGGGCAACAUUCCGAGGGGACCGUCCCCUCGGUAAUGGCGAAUGGGACCCA [C7A C26U]	0.919
GGCCGGAAUGGUCCCAGCCUCCUCGGUGGCGCCGGCUGGGCAACAUUCCGAGGGGACCGUCCCCUCGGUAAUGGCGAAUGGGACCCA [C7A C26G]	0.554
GGCCGGAAUGGUCCCAGCCUCCUCGCUGGCGCCGGCUGAGCAACAUUCCGAGGGGACCGUCCCCUCGGUAAUGGCGAAUGGGACCCA [C7A G39A]	0.0739
GGCCGGAAUGGUCCCAGCCUCCUCGCUGGCGCCGGCUGUGCAACAUUCCGAGGGGACCGUCCCCUCGGUAAUGGCGAAUGGGACCCA [C7A G39U]	0.18
GGCCGGAAUGGUCCCAGCCUCCUCGCUGGCGCCGGCUGGGCAACAUUCCGAGGGGACCGUACCCUCGGUAAUGGCGAAUGGGACCCA [C7A C61A]	0.692
GGCCGGAAUGGUCCCAGCCUCCUCGCUGGCGCCGGCUGGGCAACAUUCCGAGGGGACCGUGCCCUCGGUAAUGGCGAAUGGGACCCA [C7A C61G]	0.806
GGCCGGAAUGGUCCCAGCCUCCUCGCUGGCGCCGGCUGGGCAACAUUCGGAGGGGACCGUCCCCUCGGUAAUGGCGAAUGGGACCCA [C7A C49G]	0.291
GGCCGGAAUGGUCCCAGCCUCCUCGCUGGCGCCGGCUGGACAACAUUCCGAGGGGACCGUCCCCUCGGUAAUGGCGAAUGGGACCCA [C7A G40A]	0.646
GGCCGGAAUGGUCCCAGCCUCCUCGCUGGCGCCGGCUGGUCAACAUUCCGAGGGGACCGUCCCCUCGGUAAUGGCGAAUGGGACCCA [C7A G40U]	0.295
GGCCGGAAUGGUCCCAGCCUCCUCGCUGGCGCCGGCUGGGCAACAUUCCGAGGGGACCGUCCCUUCGGUAAUGGCGAAUGGGACCCA [C7A C64U]	0.491
GGCCGGAAUGGUCCCAGCCUCCUCGCUGGCGCCGGCUGGGCAACAUUCCGAGGGGACCGUCCCGUCGGUAAUGGCGAAUGGGACCCA [C7A C64G]	0.429
GGCCGGAAUGGUCCCAGCCUCCUCGCUGGCGACGGCUGGGCAACAUUCCGAGGGGACCGUCCCCUCGGUAAUGGCGAAUGGGACCCA [C7A C32A]	0.332
GGCCGGAAUGGUCCCAGCCUCCUCGCUGGCGUCGGCUGGGCAACAUUCCGAGGGGACCGUCCCCUCGGUAAUGGCGAAUGGGACCCA [C7A C32U]	0.227
GGCCGGAAUGGUCCCAGCCUCCUCGCUGGCGCCGGCUGGGCAACAUUCCGAGGGGACCGUCCUCUCGGUAAUGGCGAAUGGGACCCA [C7A C63U]	0.652
